Experimental data taken from publication PMC3064986 (Biochemical and biophysical research communications, 2011).

B1: yeast antizyme (Saccharomyces cerevisiae), N-terminal 6XHis-tagged, full length (natural protein, UniProt Q02803 1-292, looked up)
chain: MYEVIQKRKTKIINVLQSPELMRLIEDPSNLGISLHFPVSSLLKSNKCTPMPKLSTYSLASGGFKDWCADIPLDVPPEIDIIDFYWDVILCMESQFILDYNVPSKNKGNNQKSVAKLLKNKLVNDMKTTLKRLIYNENTKQYKNNNSHDGYNWRKLGSQYFILYLPLFTQELIWCKLNENYFHVVLPSLLNSRNVHDNHSTYINKDWLLALLELTSNLNQNFKFEYMKLRLYILRDDLINNGLDLLKNLNWVGGKLIKNEDREVLLNSTDLATDSISHLLGDENFVILEFEC
B2: yeast ornithine decarboxylase (Saccharomyces cerevisiae SPE1) (enzyme, UniProt P08432 1-466, looked up)
chain: MSSTQVGNALSSSTTTLVDLSNSTVTQKKQYYKDGETLHNLLLELKNNQDLELLPHEQAHPKIFQALKARIGRINNETCDPGEENSFFICDLGEVKRLFNNWVKELPRIKPFYAVKCNPDTKVLSLLAELGVNFDCASKVEIDRVLSMNISPDRIVYANPCKVASFIRYAASKNVMKSTFDNVEELHKIKKFHPESQLLLRIATDDSTAQCRLSTKYGCEMENVDVLLKAIKELGLNLAGVSFHVGSGASDFTSLYKAVRDARTVFDKAANEYGLPPLKILDVGGGFQFESFKESTAVLRLALEEFFPVGCGVDIIAEPGRYFVATAFTLASHVIAKRKLSENEAMIYTNDGVYGNMNCILFDHQEPHPRTLYHNLEFHYDDFESTTAVLDSINKTRSEYPYKVSIWGPTCDGLDCIAKEYYMKHDVIVGDWFYFPALGAYTSSAATQFNGFEQTADIVYIDSELD

Assays:
[1] = target: B2; assay: SPR
[2] = target: B1; assay: SEC-MALS

Binder	Kd [1] [nM]	kon [1] [M⁻¹ s⁻¹]	stoichiometry N [2] [ODC per AZ]
B1	17.3	31400	
B2			1
